We go through 2 molecules from patent publication US20050201975A1 (published 2005).

Experiment [1] concerns the target T1, GAL4BD alone (UniProt P04386 1-147).
T1 construct: domain: GAL4BD; Three empty GAL4BD expression constructs were used as controls; also called pBD-GAL4cam; pBRIDGE
As to the kind of experiment: yeast two-hybrid (HIS3, ADE2, LacZ reporters) in AH109. From the text: AH109pLOR67 and AH109 transformed with GAL4BD expression constructs pBD-GAL4cam (Stratagene), pBRIDGE (Clontech) and pLOR32 were used to assess whether the GAL4AD fusion proteins encoded by plasmids 8-2 and 8-7 interacted in a repeatable and specific manner with the Notch1(₁₇₆₂₋₁₈₂₉) domain of the GAL4BDN1(₁₇₆₂₋₁₈₂₉) fusion protein.
These yeast stains along with AH109pLOR67 were then transformed with either 8-2 (CBF 1 fragment) or 8-7 and plated on —WL, —WLH, —WLHA, —WLHAXαGAL plates. An alternative to XaGAL was also employed to assess LacZ expression. Yeast colonies grown on —WLHA plates, were transferred to filter paper by placing the appropriately sized piece of 3 mm Whatman paper over the screen plate and pressing down firmly over the whole surface of the plate. The orientation of the paper was then marked and the paper lifted with a jerking action, lifting the colonies from the agar. The yeast colonies were permeabilised by placing the filter papers in liquid nitrogen, and then allowing them to thaw. This cycle was repeated three times in total. 1.8 ml Z buffer containing X-gal was added to each filter paper, the papers were then monitored for the next 6 hours for the production of blue colour.

Experiment [2] deals with T2, GAL4AD protein (UniProt P04386 768-881).
T2 construct: domain: GAL4AD
T2 sequence (looked up): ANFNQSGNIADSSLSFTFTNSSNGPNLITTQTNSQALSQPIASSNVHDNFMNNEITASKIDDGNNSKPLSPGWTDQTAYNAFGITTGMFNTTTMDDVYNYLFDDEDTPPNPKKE
Nature of the experiment: yeast two-hybrid bait specificity check in AH109pLOR67.

B1: GAL4AD fusion protein encoded by plasmid 8-7 (splice variant of the human homologue of mouse C2PA) (other, not shown: small tags and cut ends)
chain: GRATQGAHARLTGPVRAPAAGGELGFHGAAAEAGPAAMNRFNGLCKVCSERRYRQITIPRGKDGFGFTICCDSPVRVQAVDSGGPAERAGLQQLDTVLQLNERPVEHWKCVELAHEIRSCPSEIILLVWRMVPQVKPGPDGGVLRRASCKSTHDLQSPPNKREKNCTHGVQARPEQRHSCHLVCDSSDGLLLGGWERYTEVAKRGGQHTLPALSRATAPTDPNYIILAPLNPGSQLLRPVYQEDTIPEESGSPSKGKSYTGLGKKSRLMKTVQTMKGHGNYQNCPVVRPHATHSSYGTYVTLAPKVLVFPVFVQPLDLCNPARTLLLSEELLLYEGRNKAAEVTLFAYSDLLLFTKEDEPGRCDVLRNPLYLQSVKLQEGSSEDLKFCVLYLAEKAECLFTLEAHSQEQKKRVCWCLSENIAKQQQLAASPPDSKKLHPFGSLQQEMGPVNSTNATQDRSFTSPGQTLIG
notes: Prey from a human spleen cDNA library (Clontech); also called colony 8-7
On to B1, for which the binding result in experiment [1] is “no binding”.

B2: GAL4BD-N1 fragment (1762-1829) fusion protein (other)
chain: MKLLSSIEQACDICRLKKLKCSKEKPKCAKCLKNNWECRYSPKTKRSPLTRAHLTEVESRLERLEQLFLLIFPREDLDMILKMDSLQDIKALLTGLFVQDNVNKDAVTDRLASVETDMPLTLRQHRISATSSSEESSNKGQRQLTVSPEFRRQHGQLWFPEGFKVSEASKKKRREPLGEDSVGLKPLKNASDGALMDDNQNEWGDEDLETKKFRFEDPSTCSQANSGRISYDL
notes: Expressed in yeast strain AH109 from pLOR67 (yeast two-hybrid bait); Notch1 numbering per AAG33848; also called bait protein
As to B2, the binding result in experiment [2] is reported as “no binding”.
